Measurements from patent publication US20070099268A1, “Chimeric HCN channels” (priority 2005, published 2007).
Entries after “also recorded” stand apart in the source; their conditions may differ.

System: Xenopus oocytes
Assay: Two-microelectrode voltage clamp of mHCN2 and mE324A expressed in Xenopus oocytes
Format: cell-based, Xenopus laevis
Protocol: Oocytes were prepared from mature female Xenopus laevis in accordance with an approved protocol as previously described (Yu et al., 2004).
For expression of HCN in Xenopus oocytes, oocytes were injected with 5 ng of cRNA made from mouse wild-type mHCN2 and mutant mHCN2 (E324A) plasmids. Injected oocytes were incubated at 18° C. for 24-48 h prior to electrophysiological analysis.
For measurements in Xenopus oocytes, oocytes were voltage-clamped using a two-microelectrode voltage clamp technique. The extracellular recording solution (OR2) contained (in mM): NaCl, 80; KCl, 2; MgCl2, 1; and Na-HEPES, 5 (pH 7.6). For the recording of steady state activation of expressed Wt mHCN2, currents were elicited by 2-s long hyperpolarizing pulses between −30 mV and −160 mV with 10 mV increments, followed by a 1-s depolarizing pulse to +15 mV. The holding potential was −30 mV. As to the mHCN2 (E324A), currents were elicited by 3-s-long hyperpolarizing pulses between +20 mV and −130 mV with 10 mV increments, followed by a 1 second depolarizing pulse to +50 mV. The holding potential was +20 mV. To construct the current/voltage relationship for wildtype (Wt) mHCN2, the cell was held at […], the current was elicited by a 2-s hyperpolarizing voltage step to −140 mV to saturate activation, and followed by 2-s depolarizing voltage steps between […] and +50 mV in 10 mV increments. For mHCN2 (E324A), the cell was held at +20 mV, current was elicited by a 1.5-s hyperpolarizing voltage step to −110 mV to saturate activation, and then followed by 1.5-s depolarizing voltage steps between −80 mV and +50 mV in 10 mV increments for the recording of tail currents. To record the current amplitudes for Wt mHCN2, the current was evoked by applying a 3-s hyperpolarizing voltage pulse to −120 mV from a holding potential of −30 mV. For mHCN2 (E324A), the current was evoked by applying a 3-s hyperpolarizing voltage pulse to −120 mV from a holding potential of +20 mV.

B1: mHCN2: mouse HCN2 hyperpolarization-activated, cyclic nucleotide-gated channel, wild type (GenBank AJ225122) (protein)
chain: MDARGGGGRPGDSPGTTPAPGPPPPPPPPAPPQPQPPPAPPPNPTTPSHPESADEPGPRARLCSRDSACTPGAAKGGANGECGRGEPQCSPEGPARGPKVSFSCRGAASGPSAAEEAGSEEAGPAGEPRGSQASFLQRQFGALLQPGVNKFSLRMFGSQKAVEREQERVKSAGAWIIHPYSDFRFYWDFTMLLFMVGNLIIIPVGITFFKDETTAPWIVFNVVSDTFFLMDLVLNFRTGIVIEDNTEIILDPEKIKKKYLRTWFVVDFVSSIPVDYIFLIVEKGIDSEVYKTARALRIVRFTKILSLLRLLRLSRLIRYIHQWEEIFHMTYDLASAVMRICNLISMMLLLCHWDGCLQFLVPMLQDFPSDCWVSINNMVNHSWSELYSFALFKAMSHMLCIGYGRQAPESMTDIWLTMLSMIVGATCYAMFIGHATALIQSLDSSRRQYQEKYKQVEQYMSFHKLPADFRQKIHDYYEHRYQGKMFDEDSILGELNGPLREEIVNFNCRKLVASMPLFANADPNFVTAMLTKLKFEVFQPGDYIIREGTIGKKMYFIQHGVVSVLTKGNKEMKLSDGSYFGEICLLTRGRRTASVRADTYCRLYSLSVDNFNEVLEEYPMMRRAFETVAIDRLDRIGKKNSILLHKVQHDLSSGVFNNQENAIIQEIVKYDREMVQQAELGQRVGLFPPPPPPQVTSAIATLQQAVAMSFCPQVARPLVGPLALGSPRLVRRAPPGPLPPAASPGPPAASPPAAPSSPRAPRTSPYGVPGSPATRVGPALPARRLSRASRPLSASQPSLPHGVPAPSPAASARPASSSTPRLGPAPTARTAAPSPDRRDSASPGAASGLDPLDSARSRLSSNL
- voltage at which currents saturated: around −130 mV
- slope (s) with cAMP (8-Br-cAMP 1 mM): 9.5 mV
- Vh with cAMP (8-Br-cAMP 1 mM extracellular): −84.9 mV
- effect of Cs+ on inward current (Cs+ 5 mM): blocked; also recorded: large inhibition
- slope (s), control (control): 13.9 mV
- activation more negative than mE324A (oocytes): 35 mV
- half maximal activation (Vh), control (oocytes, control): −92.7 mV
- induced current (single voltage pulse to −120 mV): 912.7±63.7 nA
